# Patent US20100162418A1 (Kyowa Kirin, published 2010)
# T1: MSPS, purified recombinant human Protein S obtained from FUT8 knockout CHO/DG44 cells (human, UniProt P07225 42-676, gamma-carboxylated glutamic acid (Gla) in the Gla domain; complex type N-glycoside-linked sugar chains without fucose (fucose not detected))
# T1 construct: It differs from KCPS only in glycosylation (no core fucose); also called fucose-free recombinant Protein S
# T1 sequence: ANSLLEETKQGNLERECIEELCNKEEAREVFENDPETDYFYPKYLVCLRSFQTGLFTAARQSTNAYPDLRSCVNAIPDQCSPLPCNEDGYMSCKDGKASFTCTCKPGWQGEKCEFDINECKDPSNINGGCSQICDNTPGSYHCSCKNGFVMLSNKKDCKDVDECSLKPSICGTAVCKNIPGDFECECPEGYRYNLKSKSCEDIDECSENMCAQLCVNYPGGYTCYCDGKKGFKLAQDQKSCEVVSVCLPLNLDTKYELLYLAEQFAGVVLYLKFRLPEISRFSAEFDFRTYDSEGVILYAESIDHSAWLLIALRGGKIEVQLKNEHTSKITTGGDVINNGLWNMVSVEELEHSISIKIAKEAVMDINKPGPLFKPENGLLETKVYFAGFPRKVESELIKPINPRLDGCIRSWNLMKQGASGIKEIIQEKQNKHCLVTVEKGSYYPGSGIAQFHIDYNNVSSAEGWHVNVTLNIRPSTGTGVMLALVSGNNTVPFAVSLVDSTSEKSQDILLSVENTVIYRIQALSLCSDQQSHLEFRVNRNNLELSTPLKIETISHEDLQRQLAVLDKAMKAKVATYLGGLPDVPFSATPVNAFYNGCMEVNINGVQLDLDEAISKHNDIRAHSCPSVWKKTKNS
# T2: human plasma-derived Protein S (manufactured by Calbiochem) (human, UniProt P07225 42-676, gamma-carboxylated glutamic acid (Gla) in the N-terminal Gla domain; complex type N-glycoside-linked sugar chains (Asn458, Asn468, Asn489), partly with core alpha1,6-fucose (Fuc 0.26 per Man 3.00))
# T2 construct: Bought protein purified from human plasma; also called native Protein S; Human plasma Protein S
# T2 sequence: T1 sequence
# T3: human plasma-derived complement C4 binding protein (C4BP; manufactured by BioMed) (human, UniProt P04003 49-597; P20851 18-252)
# T3 construct: mature; Bought plasma protein; also called Human C4BP
# T3 sequence (looked up) 1: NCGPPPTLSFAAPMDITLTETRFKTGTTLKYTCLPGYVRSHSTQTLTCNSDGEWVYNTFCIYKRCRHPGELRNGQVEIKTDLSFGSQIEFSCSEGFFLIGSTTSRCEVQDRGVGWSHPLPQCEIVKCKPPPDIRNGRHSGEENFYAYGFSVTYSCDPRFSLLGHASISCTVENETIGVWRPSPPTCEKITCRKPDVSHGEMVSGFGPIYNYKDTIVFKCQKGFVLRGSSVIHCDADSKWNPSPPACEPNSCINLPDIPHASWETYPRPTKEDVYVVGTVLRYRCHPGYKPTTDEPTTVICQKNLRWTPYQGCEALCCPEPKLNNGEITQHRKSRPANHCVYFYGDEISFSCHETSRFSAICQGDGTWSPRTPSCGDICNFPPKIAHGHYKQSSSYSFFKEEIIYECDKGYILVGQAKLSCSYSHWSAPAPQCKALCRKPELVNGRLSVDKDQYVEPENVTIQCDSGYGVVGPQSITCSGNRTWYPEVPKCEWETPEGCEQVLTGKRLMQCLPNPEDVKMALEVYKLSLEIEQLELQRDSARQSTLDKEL
# T3 sequence (looked up) 2: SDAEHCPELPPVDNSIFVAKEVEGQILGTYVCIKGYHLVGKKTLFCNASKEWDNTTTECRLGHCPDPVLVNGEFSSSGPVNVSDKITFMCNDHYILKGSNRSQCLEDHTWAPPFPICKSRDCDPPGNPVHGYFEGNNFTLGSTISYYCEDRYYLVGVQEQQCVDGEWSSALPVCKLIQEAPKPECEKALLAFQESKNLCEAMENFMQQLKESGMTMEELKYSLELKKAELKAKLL
# B1: recombinant human S100A8/A9 (manufactured by R&D Systems) (ligand)
# chain 1: MLTELEKALNSIIDVYHKYSLIKGNFHAVYRDDLKKLLETECPQYIRKKGADVWFKELDINTDGAVNFQEFLILVIKMGVAAHKKSHEESHKE
# chain 2: MTCKMSQLERNIETIINTFHQYSVKLGHPDTLNQGEFKELVRKDLQNFLKKENKNEKVIEHIMEDLDTNADKQLSFEEFIMLMARLTWASHEKMHEGDEGPGHHHKPGLGEGTP
# notes: Bought
# B2: human E-selectin Fc fusion protein (manufactured by R&D systems) (Fc fusion, UniProt P16581 22-556, looked up)
# chain: WSYNTSTEAMTYDEASAYCQQRYTHLVAIQNKEEIEYLNSILSYSPSYYWIGIRKVNNVWVWVGTQKPLTEEAKNWAPGEPNNRQKDEDCVEIYIKREKDVGMWNDERCSKKKLALCYTAACTNTSCSGHGECVETINNYTCKCDPGFSGLKCEQIVNCTALESPEHGSLVCSHPLGNFSYNSSCSISCDRGYLPSSMETMQCMSSGEWSAPIPACNVVECDAVTNPANGFVECFQNPGSFPWNTTCTFDCEEGFELMGAQSLQCTSSGNWDNEKPTCKAVTCRAVRQPQNGSVRCSHSPAGEFTFKSSCNFTCEEGFMLQGPAQVECTTQGQWTQQIPVCEAFQCTALSNPERGYMNCLPSASGSFRYGSSCEFSCEQGFVLKGSKRLQCGPTGEWDNEKPTCEAVRCDAVHQPPKGLVRCAHSPIGEFTYKSSCAFSCEEGFELHGSTQLECTSQGQWTEEVPSCQVVKCSSLAVPGKINMSCSGEPVFGTVCKFACPEGWTLNGSAARTCGATGHWSGLLPTCEAPTESNIP
# notes: Fc-bearing control protein; bought; not shown: Fc, described as similar to the Fc of human IgG1 contained in the RAGE-Fc fusion protein
# B3: recombinant human HMGB-1 (manufactured by R&D Systems) (ligand, UniProt P09429 1-215, looked up)
# chain: MGKGDPKKPRGKMSSYAFFVQTCREEHKKKHPDASVNFSEFSKKCSERWKTMSAKEKGKFEDMAKADKARYEREMKTYIPPKGETKKKFKDPNAPKRPPSAFFLFCSEYRPKIKGEHPGLSIGDVAKKLGEMWNNTAADDKQPYEKKAAKLKEKYEKDIAAYRAKGKPDAAKKGVVKAEKSKKKKEEEEDEEDEEDEEEEEDEEDEDEEEDDDDE
# B4: KCPS, purified recombinant human Protein S obtained from CHO/DG44 cells (other)
# chain: T1 sequence
# modifications: gamma-carboxylated glutamic acid (Gla) in the Gla domain; complex type N-glycoside-linked sugar chains with fucose (Fuc 0.69 per Man 3.00)
# notes: It differs from MSPS only in glycosylation (highest core fucose ratio)
# Legend:
# [1] = molecular target: T1, MSPS, purified recombinant human …; experiment: SPR (Biacore), S100A8/A9 immobilised on C1 chip, MSPS as analyte
# Description: Using an amine coupling kit (manufactured by Biacore), recombinant human HMGB-1 (manufactured by R&D Systems), recombinant human Mac-1 heterodimer (αmβ2 integrin, CD11b/CD18; manufactured by R&D Systems), and recombinant human S100A8/A9 (manufactured by R&D Systems) were respectively immobilized at 200 RU, 1200 RU, and 400 RU on flow cells of a Series S C1 sensor chip (manufactured by Biacore). The measurement was carried out in the same manner as in Example 5, except that the recombinant human RAGE-Fc fusion protein (manufactured by R&D Systems) diluted to given concentrations of 50000, 5000 or 500 ng/mL was used as an analyte.
# Next, using the same sensor chip, the same binding experiment was carried out using a recombinant human RAGE-Fc fusion protein (5000 ng/mL) mixed with MSPS (final concentration of 50000 and 5000 μg/mL), as an analyte.
# [2] = molecular target: T4, recombinant human RAGE-Fc fusion protein (manufactured by R&D Systems) (human, UniProt Q15109 24-344); experiment: SPR (Biacore), S100A8/A9 immobilised on C1 chip, RAGE-Fc (50000, 5000, 500 ng/mL) as analyte
# T4 construct: Bought fusion protein; also called recombinant soluble RAGE-human IgG1 Fc chimeric protein; not shown: Fc of human IgG1
# T4 sequence (Q15109 24-344 limits assumed): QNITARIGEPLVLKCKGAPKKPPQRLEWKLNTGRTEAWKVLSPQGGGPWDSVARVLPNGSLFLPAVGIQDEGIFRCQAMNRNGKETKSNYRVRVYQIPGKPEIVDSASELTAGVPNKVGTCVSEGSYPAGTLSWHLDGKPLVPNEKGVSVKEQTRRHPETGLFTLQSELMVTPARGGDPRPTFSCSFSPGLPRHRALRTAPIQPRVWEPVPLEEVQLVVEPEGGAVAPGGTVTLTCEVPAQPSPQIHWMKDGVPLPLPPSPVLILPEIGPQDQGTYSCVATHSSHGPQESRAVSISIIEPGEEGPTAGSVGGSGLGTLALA
# Excerpt: (§1) Using an amine coupling kit (manufactured by Biacore), human plasma-derived Protein S (manufactured by Calbiochem), human plasma-derived complement C4 binding protein (C4BP; manufactured by BioMed), and human plasma-derived complement C1 inhibitor Berinert P (manufactured by CSL Behring) were respectively immobilized on flow cells of a CM5 sensor chip (manufactured by Biacore). An immobilized amount of the ligand protein on the respective flow cells was set to the range of 2400 to 3600 resonance units (hereinafter referred to as “RU”). The complement C4 binding protein and the complement C1 inhibitor are known as plasma glycoproteins having the anti-inflammatory effect. Then, a recombinant human RAGE-Fc fusion protein (manufactured by R&D Systems) diluted to given concentrations (50000, 25000, 12500, 6250, 3125, and 1562 ng/mL) using HBS-EP+buffer (manufactured by Biacore), as an analyte, was allowed to run and bind to the ligand-immobilized flow cells at a temperature of 25° C., a flow rate of 5 μL/min, association time of 140 seconds, and dissociation time of 240 seconds. The chip was regenerated by a flow of an aqueous glycine solution (pH 1.5) (manufactured by Biacore) for 60 seconds. […]
# [3] = molecular target: T2, human plasma-derived Protein S …; experiment: SPR (Biacore), plasma Protein S immobilised on CM5, E-selectin Fc as analyte
# [4] = molecular target: T1, MSPS, purified recombinant human …; experiment: SPR (Biacore), HMGB-1 immobilised on C1 chip, MSPS as analyte
# [5] = molecular target: T4, recombinant human RAGE-Fc fusion …; experiment: SPR (Biacore), HMGB-1 immobilised on C1 chip, RAGE-Fc (50000, 5000, 500 ng/mL) as analyte
# Excerpt: as §1
# [6] = molecular target: T3, human plasma-derived complement C4 …; experiment: SPR (Biacore T100), KCPS immobilised on CM5, C4BP as analyte
# Excerpt: Using an amine coupling kit (manufactured by Biacore), human plasma-derived Protein S (manufactured by Calbiochem), and recombinant human Protein S prepared in Example 4, MSPS and KCPS were respectively immobilized on flow cells of a CM5 sensor chip (manufactured by Biacore). An immobilized amount of the ligand protein on the respective flow cells was set to the range of 1500 to 2000 RU. Then, an anti-human Protein S antibody C-17 (manufactured by Santa Cruz) (FIG. 7), or a human plasma-derived complement C4 binding protein (manufactured by BioMed) diluted to given concentrations (50000, 25000, 12500, 6250, 3125, and 1562 ng/mL) using HBS-EP+buffer (manufactured by Biacore), as an analyte, was allowed to run and bind to the ligand-immobilized flow cells at a temperature of 25° C., a flow rate of 5 μL/min, association time of 140 seconds, and dissociation time of 240 seconds. The anti-human Protein S antibody C-17 and the human plasma-derived complement C4 binding protein are known to bind to the sex hormone-binding globulin-like domain (SHBG domain) at the carboxyl terminal of Protein S. The chip was regenerated by a flow of an aqueous glycine solution (pH 1.5) (manufactured by Biacore) for 60 seconds. Dissociation constants calculated by analysis of the obtained data using Biacore T100 evaluation software ver 1.1 (manufactured by Biacore) are given in Table 2 below.
binder,measurement,setting,value
B1,binding result,[1],no binding
same,binding result,[2],binds
B2,binding result,[3],no binding
B3,binding result,[4],no binding
same,binding result,[5],binds
B4,Kd,[6],81 nM
